The target in data set [1] is T1, CheR (classical Td CheR) (Treponema denticola, UniProt Q73PZ7).
T1 construct: purified CheR; cloning and tag not described in main text; printed residues R79, Gly152, Val180, Y218
T1 sequence (Q73PZ7 1-271): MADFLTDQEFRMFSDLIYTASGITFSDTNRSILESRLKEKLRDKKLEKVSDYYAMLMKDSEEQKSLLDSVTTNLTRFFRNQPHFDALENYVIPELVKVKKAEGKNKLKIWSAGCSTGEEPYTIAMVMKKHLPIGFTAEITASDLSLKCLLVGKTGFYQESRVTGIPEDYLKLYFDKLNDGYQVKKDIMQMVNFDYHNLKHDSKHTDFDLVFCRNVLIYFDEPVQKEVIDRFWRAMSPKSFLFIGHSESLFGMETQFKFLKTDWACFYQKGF
The experiment in a line: isothermal titration calorimetry. The format is binding. Background: Isothermal titration calorimetry measures the heat released or taken up as one component is titrated into another.

For data set [2], the target named is T2, CheW-CheRlike (CheW-Rlike) (Treponema denticola, UniProt F7IUZ1).
T2 construct: gene cheW-1; full-length fusion: N-terminal CheW domain, 28-residue linker, C-terminal CheR-like domain; poly-His tag (pET28a), E. coli BL21(DE3); mainly monomer
T2 sequence (F7IUZ1 1-444): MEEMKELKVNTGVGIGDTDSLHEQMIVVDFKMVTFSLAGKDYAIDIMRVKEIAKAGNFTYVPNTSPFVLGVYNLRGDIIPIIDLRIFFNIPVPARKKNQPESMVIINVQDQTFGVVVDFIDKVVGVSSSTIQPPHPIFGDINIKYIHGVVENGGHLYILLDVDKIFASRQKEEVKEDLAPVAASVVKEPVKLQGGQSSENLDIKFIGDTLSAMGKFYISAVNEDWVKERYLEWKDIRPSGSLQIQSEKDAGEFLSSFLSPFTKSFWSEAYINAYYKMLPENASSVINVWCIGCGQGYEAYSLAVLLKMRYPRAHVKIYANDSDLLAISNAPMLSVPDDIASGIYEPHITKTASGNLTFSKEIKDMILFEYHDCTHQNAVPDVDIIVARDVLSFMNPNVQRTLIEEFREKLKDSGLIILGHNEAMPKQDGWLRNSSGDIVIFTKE
The experiment in a line: isothermal titration calorimetry. The class given is binding.

For data set [3], the target named is Treponema denticola histidine kinase CheA (Treponema denticola) (UniProt O85747). The experiment in a line: SEC-MALS; 25 °C; each sample 10 mg/mL; 50 mM MOPS pH 7.5, 150 mM KCl, 5 mM MgCl2; mixed sample 1:1 molar CheA:CheW-R_(like); CheW-R_(like) pre-incubated 15 min with 5 mM DTT; GE S200 Increase (10/300). Background: Size exclusion chromatography separates by hydrodynamic size, large species first.

Data set [4] deals with the molecule itself. The experiment in a line: crystal structure; isolated P3 domain at 32 mg/ml, hanging drop, 0.1 M Imidazole pH 7.0, 25% PEG 400; data cut off at 1.5 Å.
Data set [5] deals with the molecule itself. The experiment in a line: SEC-MALS; 25 °C; each sample 10 mg/mL; 50 mM MOPS pH 7.5, 150 mM KCl, 5 mM MgCl2; mixed sample 1:1 molar CheA:CheW-R_(like); CheW-R_(like) pre-incubated 15 min with 5 mM DTT; GE S200 Increase (10/300).

The term Kd denotes the concentration at which binding is half-saturated. A higher Kd goes with weaker binding. For `C[S+](CC[C@H](N)C(=O)O)C[C@H]1O[C@@H](n2cnc3c(N)ncnc32)[C@H](O)[C@@H]1O` (some centres unmarked) [S-adenosylmethionine], the results for the Kd in data set [1] and in data set [2] were 20 ± 3.7 µM and 8.8 ± 1.9 µM, respectively.

In data set [3], “Treponema denticola CheW-CheR_(like) protein (TDE1492) (natural protein)” displayed a stoichiometry N (CheW-R subunit per CheA dimer) of 1.

B1: Treponema denticola CheA P3 domain (dimerization domain) (domain or fragment)
chain: SILRVDANRIDYLLNLVSETVITKASLNQSTIEFAELYDKFQNSSTIYKDKTRRLLDKMPEYLEKIQQGYDINSIKQDVLNEYSSLLEVFGDFDSLMKAAVTKFKSSSQNLGRISGELQEGVMKIRMVP
notes: P3 (dimerization) domain of Treponema denticola CheA, with about 50 additional residues joining the canonical P3 helices; Cloned NdeI/EcoRI into pet28a; The printed residue number Tyr83 probably counts on the deposited construct and not on whole CheA; also called Td P3 domain; isolated P3 domain; source: E. coli BL21-DE3, purified (Nickel-NTA, size exclusion)
Regarding B1, the binding result in data set [4] is “binds”.

B2: Treponema denticola histidine kinase CheA (enzyme, UniProt O85747 1-801, looked up)
chain: MSDYLDINNEELLKDFFSEAEQQVEILESNVLVIEQNPEDRNSIDEIFRAAHTLKGGSATVEMLELSKFTHAMEDLLDEIRSGSVKVTGETVDLLLKSIDIIKLMLDARASGSIYSDDVSGIVNQLRSFIPAKAEKKSSKASAPKVSIPASVSPVSAPKVQASASNLDIKDYFSEYEILELAETIQKGEDLYAVIVKFDESNLMNSVGGIQVFAALKDYGSVLKTVPDFDALYEDEFHETVIYFLSSASDSKILEKAAFIGDVTLSASAERLDIKDKTPESPKPAKAAPAQSAPEASVSEVKVSEKTEEKPVQESKEQPSKPEKKQSQTSPQGSGHSSGSILRVDANRIDYLLNLVSETVITKASLNQSTIEFAELYDKFQNSSTIYKDKTRRLLDKMPEYLEKIQQGYDINSIKQDVLNEYSSLLEVFGDFDSLMKAAVTKFKSSSQNLGRISGELQEGVMKIRMVPISQIFSRFPRVVRDLSRDLNKNVQLVIEGEDTELDKSVVEDLLDPIMHCVRNSLDHGVESPEVRKGLGKPEQGILLLKASNEGNMIVIEVADDGHGIDVEAVKQKAVERGILHPNKSLTDVEAFQLVFAPGFSTSKTISSVSGRGVGLDVVKTHIEKLNGTVMVESEPNVGTRFIIKLPLTLAIIQGLLIRVGDEVYSIPITSVIESHRVKPDEINRIDNYEVFNVRDEVYSLLRLNRLFGITSAETDDDGYNYIVVVGTEEKKVGLMVDSLIGEEAVVIKPLKDQFTNSPGIAGASILGDGSVSLIIDVAQLLELGLKQEMQARERREASIW
notes: Histidine kinase CheA of Treponema denticola ATCC 35405, the only CheA homolog in the genome; amplified from Td genomic DNA; Cloned NdeI/BamHI into pet28a; co-transcribed with TDE1492; also called Td CheA; CheA-F2; source: E. coli BL21-DE3, purified (Nickel-NTA, size exclusion)
For orientation: stoichiometry N means a count of units in the complex or per binding partner. With B2, the “stoichiometry N” value in data set [5] amounted to 2.

The record behind these values is article PMC7666581, “Atypical chemoreceptor arrays accommodate high membrane curvature” (Nature Communications, 2020).
